14 compounds from US8754033B2, “Peptides for inhibiting transglutaminase” (National Cancer Center, priority 2005, dated 2014) can be followed below.

One assay addresses transglutaminase (guinea pig liver, Sigma) (Cavia cutleri, UniProt P08587).
Assay: not given
To be noted: purified I-κBα with 1 mU transglutaminase, 50 mM Tris-HCl pH 7.5, 10 mM CaCl2, NuPAGE gel; in the presence of EDTA.
As to `O=C(O)CN(CCN(CC(=O)O)CC(=O)O)CC(=O)O` [EDTA], the “inhibition of transglutaminase (I-κBα polymerization)” value is “inhibited”.

In the next assay the target is T1, TGase (UniProt P08587).
T1 sequence (P08587 1-690): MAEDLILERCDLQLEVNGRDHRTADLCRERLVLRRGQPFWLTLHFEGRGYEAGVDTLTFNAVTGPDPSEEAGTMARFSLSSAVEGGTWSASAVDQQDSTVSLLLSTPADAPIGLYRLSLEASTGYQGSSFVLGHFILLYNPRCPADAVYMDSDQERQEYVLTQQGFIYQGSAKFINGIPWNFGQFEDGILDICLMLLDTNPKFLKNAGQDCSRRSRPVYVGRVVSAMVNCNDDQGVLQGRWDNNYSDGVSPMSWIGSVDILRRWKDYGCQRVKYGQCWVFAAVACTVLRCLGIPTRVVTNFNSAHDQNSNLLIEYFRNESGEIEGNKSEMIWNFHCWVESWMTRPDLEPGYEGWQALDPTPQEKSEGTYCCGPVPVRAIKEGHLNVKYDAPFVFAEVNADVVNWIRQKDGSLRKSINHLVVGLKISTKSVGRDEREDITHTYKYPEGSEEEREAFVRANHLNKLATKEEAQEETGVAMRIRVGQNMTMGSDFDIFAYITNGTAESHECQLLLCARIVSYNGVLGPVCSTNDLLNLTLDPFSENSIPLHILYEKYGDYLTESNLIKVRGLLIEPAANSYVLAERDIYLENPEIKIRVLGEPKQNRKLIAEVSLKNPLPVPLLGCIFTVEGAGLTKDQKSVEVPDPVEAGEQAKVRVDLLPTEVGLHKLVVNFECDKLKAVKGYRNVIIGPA
In words: Competition assay: transglutaminase-mediated I-κBα cross-linking with or without synthetic peptides. It is filed as biochemical, guinea pig. To be noted: peptide 2 nmol, I-κBα 2 μg, 0.5 mU TGase, 10 mM CaCl2, 10 min at 37° C., SDS-PAGE, Coomassie band intensity. How it is done:
I-κBα (2 μg) was incubated with 0.5 mU TGase in a reaction buffer containing 50 mM Tris pH 7.5 and 10 mM CaCl2, with or without the peptides (2 nmol) of Table 1, so as to observe the cross-linking of I-κBα. The peptides of Table 1 were synthesized in Peptron Inc. After incubation for 10 min at 37° C., the reactants were separated by SDS-PAGE and visualized by Coomassie staining. Bands were measured for intensity using Adobe Photoshop software (FIGS. 7 and 8).
In the case of “GVLTQSCTT [I-κBα-derived synthetic peptide, residues 161-169]”, the “inhibition of transglutaminase-mediated I-κBα polymerization” value is reported as “inhibit transglutaminase-mediated I-κBα polymerization”.

Take “RIEEQLG [mutant of I-κBα-derived peptide]”: the “inhibition of transglutaminase-mediated I-κBα polymerization” value is recorded as “inhibit transglutaminase-mediated I-κBα polymerization”. On the same count and under the same terms, then “HSILKATNY [I-κBα-derived synthetic peptide, residues 173-181]”, with “inhibit transglutaminase-mediated I-κBα polymerization”. Regarding “TRIQQQLGQLTL [I-κBα-derived synthetic peptide, residues 263-274]”, the “inhibition of transglutaminase-mediated I-κBα polymerization” value was “inhibit transglutaminase-mediated I-κBα polymerization”. As to “RIEQELG [mutant of I-κBα-derived peptide]”, the “inhibition of transglutaminase-mediated I-κBα polymerization” value is recorded as “inhibit transglutaminase-mediated I-κBα polymerization”.

For “ILKAT [I-κBα-derived synthetic peptide, residues 175-179]”, the “inhibition of transglutaminase-mediated I-κBα polymerization” value is listed as “inhibit transglutaminase-mediated I-κBα polymerization”. With “IHEEKALTM [I-κBα-derived synthetic peptide, residues 83-91]”, the “inhibition of transglutaminase-mediated I-κBα polymerization” value is “inhibit transglutaminase-mediated I-κBα polymerization”.

Consider “RIQQQLG [I-κBα-derived synthetic peptide, residues 264-270]”, for which the “inhibition of transglutaminase-mediated I-κBα polymerization” value is given as “inhibit transglutaminase-mediated I-κBα polymerization”.

With “RIQEELG [mutant of I-κBα-derived peptide]”, the “inhibition of transglutaminase-mediated I-κBα polymerization” value is listed as “inhibit transglutaminase-mediated I-κBα polymerization”. “VFGGQRLTL [I-κBα-derived synthetic peptide, residues 309-317]”: the “inhibition of transglutaminase-mediated I-κBα polymerization” value was “inhibit transglutaminase-mediated I-κBα polymerization”. On the same count and under the same terms, for “RDGLKKERLL [I-κBα-derived synthetic peptide, residues 17-26]” the value was “inhibit transglutaminase-mediated I-κBα polymerization”.

As for “ENLQMLP [I-κBα-derived synthetic peptide, residues 275-281]”, the “inhibition of transglutaminase-mediated I-κBα polymerization” value is given as “inhibit transglutaminase-mediated I-κBα polymerization”.

With “LGQLT [I-κBα-derived synthetic peptide, residues 269-273]”, the “inhibition of transglutaminase-mediated I-κBα polymerization” value is listed as “inhibit transglutaminase-mediated I-κBα polymerization”.
